Test results: US20200390902A1, “Antibody-Drug Conjugates Targeted at Human Aspartyl-(Asparaginyl)-B-Hydroxylase (HAAH)” (Panacea Pharmaceuticals, Inc., priority 2017, published 2020)

How the values were obtained:
HAAH catalytic domain = target: T1, HAAH catalytic domain (human, UniProt Q12797); experiment: ELISA on plates coated with HAAH catalytic domain
T1 sequence: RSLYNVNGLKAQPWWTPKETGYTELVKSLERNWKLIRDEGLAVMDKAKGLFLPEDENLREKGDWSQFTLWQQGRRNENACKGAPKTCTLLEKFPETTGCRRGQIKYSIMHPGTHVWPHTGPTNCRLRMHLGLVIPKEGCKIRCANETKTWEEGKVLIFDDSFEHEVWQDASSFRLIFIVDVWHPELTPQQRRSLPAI
Protocol: The catalytic domain of HAAH (HAAH-cat) is exposed at the surface of HAAH-expressing cancer cells. The binding of SNS622-MC-DM1 at different drug-antibody ratio (DAR) and pH to HAAH-cat was measured using IgG1λ as control. The plates were coated with HAAH by treating with […] HAAH catalytic domain overnight. Following blocking with 1% Non-Fat Dry Milk in PBS for one hour, the plates were incubated for 45 minutes at 37° C. with 11.1 mg/ml IgG1λ; 9.6 mg/ml SNS622; 4.8 mg/ml SNS622-MC-DM1 at DAR 2.5, pH 7.0; 5.9 mg/ml SNS622-MC-DM1 at DAR 2.5, pH8.0; 6.1 mg/ml SNS622-DM1 at DAR 5.0, pH 7.0; 5.7 mg/ml SNS622-MC-DM1 at DAR 5.0, pH8.0; 4.1 mg/ml SNS622-DM1 at DAR 10.0, pH7.0; or 4.4 mg/ml SNS622-MC-DM1 at DAR 10.0, pH8.0. Following 5 PBS rinses the plates were incubated with 1:100 goat anti-human IgG (8)-HRP for 30 minutes at 37° C., Following five PBS rinses TMB substrate was added, and after a 15-minute incubation at room temperature, Stop solution was added to terminate the reactions. The plates were read at 450 nm using a 96-well plate reader (ELx808, BioTek). The binding results are shown below in Table VI

[1] = target: T2, Human aspartyl (asparaginyl) β-hydroxylase (HAAH) (human, UniProt Q12797); experiment: cell-based or functional assay
T2 sequence: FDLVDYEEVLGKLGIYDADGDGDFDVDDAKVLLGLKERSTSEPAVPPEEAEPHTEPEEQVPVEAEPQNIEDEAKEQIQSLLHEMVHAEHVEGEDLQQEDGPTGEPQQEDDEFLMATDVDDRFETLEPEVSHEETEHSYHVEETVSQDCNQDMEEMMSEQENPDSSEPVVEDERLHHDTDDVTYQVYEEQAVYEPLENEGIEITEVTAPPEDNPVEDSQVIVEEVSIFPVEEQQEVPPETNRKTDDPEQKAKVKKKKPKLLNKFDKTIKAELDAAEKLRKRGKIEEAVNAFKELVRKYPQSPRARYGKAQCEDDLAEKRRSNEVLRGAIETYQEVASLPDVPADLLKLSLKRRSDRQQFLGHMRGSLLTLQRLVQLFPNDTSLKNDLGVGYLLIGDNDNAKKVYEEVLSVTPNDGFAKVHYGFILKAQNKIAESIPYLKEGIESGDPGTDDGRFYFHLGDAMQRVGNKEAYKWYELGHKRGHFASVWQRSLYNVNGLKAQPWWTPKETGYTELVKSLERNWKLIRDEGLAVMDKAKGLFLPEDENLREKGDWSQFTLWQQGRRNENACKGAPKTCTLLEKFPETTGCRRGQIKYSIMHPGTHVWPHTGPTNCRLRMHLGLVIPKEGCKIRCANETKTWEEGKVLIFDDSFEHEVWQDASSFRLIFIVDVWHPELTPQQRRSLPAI

[2] = target: T2, Human aspartyl (asparaginyl) …; experiment: immunoassay on fixed H460 cells; printed as 'binding affinities'
[3] = target: Human aspartyl (asparaginyl) β-hydroxylase (HAAH) (human) (UniProt Q12797)
[4] = target: Human aspartyl (asparaginyl) β-hydroxylase (HAAH) (human) (UniProt Q12797); remark: listed apart in the source

B1: SNS622-DM1C2 (antibody, V domains shown)
VH: QVQLQQSGPGLVKPSQTLSLTCAISGDSVSSNSAAWNWIRQSPSRGLEWLGRTYYRSKWYNDYAVSVKSRITINPDTSKNQFSLQLNSVTPEDTAVYYCARTGYSSSWVVNFDYWGQGTLVTVSS
VL: QPVLTQSPSASGTPGQRVTISCSGSSSNIGSNYVYWYQQLPGTAPKLLIYKNNQRPSGVPDRFSGSKSGTAASLAISGLQSEDEADYYCAAWDDSLRGYVFGTGTKLTVLG
modifications: MC-DM1 on cysteine thiols of reduced disulfide bonds, positions not given; reaction DAR 10:1, pH 8, final DAR 5.81; MC-DM1 on cysteine thiols of reduced disulfide bonds, positions not given
% Binding (HAAH catalytic domain): 80.5%

B2: SNS622-DM1B2 (antibody, V domains shown)
VH: QVQLQQSGPGLVKPSQTLSLTCAISGDSVSSNSAAWNWIRQSPSRGLEWLGRTYYRSKWYNDYAVSVKSRITINPDTSKNQFSLQLNSVTPEDTAVYYCARTGYSSSWVVNFDYWGQGTLVTVSS
VL: QPVLTQSPSASGTPGQRVTISCSGSSSNIGSNYVYWYQQLPGTAPKLLIYKNNQRPSGVPDRFSGSKSGTAASLAISGLQSEDEADYYCAAWDDSLRGYVFGTGTKLTVLG
modifications: MC-DM1 on cysteine thiols of reduced disulfide bonds, positions not given; reaction DAR 5:1, pH 8, final DAR 3.36; MC-DM1 on cysteine thiols of reduced disulfide bonds, positions not given
% Binding (HAAH catalytic domain): 89.5%

B3: SNS622-MC-vc-PAB-DM1 (antibody, V domains shown)
VH: QVQLQQSGPGLVKPSQTLSLTCAISGDSVSSNSAAWNWIRQSPSRGLEWLGRTYYRSKWYNDYAVSVKSRITINPDTSKNQFSLQLNSVTPEDTAVYYCARTGYSSSWVVNFDYWGQGTLVTVSS
VL: QPVLTQSPSASGTPGQRVTISCSGSSSNIGSNYVYWYQQLPGTAPKLLIYKNNQRPSGVPDRFSGSKSGTAASLAISGLQSEDEADYYCAAWDDSLRGYVFGTGTKLTVLG
modifications: MC-vc-PAB-DM1 on cysteine thiols of reduced disulfide bonds, positions not given; reaction DAR 10:1 gives final DAR 6.56 (also made at 2.5:1 and 5:1); MC-vc-PAB-DM1 on cysteine thiols of reduced disulfide bonds, positions not given
IC50 of MTS, H460 cells, 72 h [1]: 123 nM

B4: SNS622-DM1B1 (antibody, V domains shown)
VH: QVQLQQSGPGLVKPSQTLSLTCAISGDSVSSNSAAWNWIRQSPSRGLEWLGRTYYRSKWYNDYAVSVKSRITINPDTSKNQFSLQLNSVTPEDTAVYYCARTGYSSSWVVNFDYWGQGTLVTVSS
VL: QPVLTQSPSASGTPGQRVTISCSGSSSNIGSNYVYWYQQLPGTAPKLLIYKNNQRPSGVPDRFSGSKSGTAASLAISGLQSEDEADYYCAAWDDSLRGYVFGTGTKLTVLG
modifications: MC-DM1 on cysteine thiols of reduced disulfide bonds, positions not given; reaction DAR 5:1, pH 7, final DAR 3.22; MC-DM1 on cysteine thiols of reduced disulfide bonds, positions not given
% Binding (HAAH catalytic domain): 81.2%

B5: SNS622-MC-vc-PAB-MMAE (antibody, V domains shown)
VH: QVQLQQSGPGLVKPSQTLSLTCAISGDSVSSNSAAWNWIRQSPSRGLEWLGRTYYRSKWYNDYAVSVKSRITINPDTSKNQFSLQLNSVTPEDTAVYYCARTGYSSSWVVNFDYWGQGTLVTVSS
VL: QPVLTQSPSASGTPGQRVTISCSGSSSNIGSNYVYWYQQLPGTAPKLLIYKNNQRPSGVPDRFSGSKSGTAASLAISGLQSEDEADYYCAAWDDSLRGYVFGTGTKLTVLG
modifications: MC-vc-PAB-MMAE on cysteine thiols of reduced disulfide bonds, positions not given; reaction DAR 10:1, final DAR 6.31; MC-vc-PAB-MMAE on cysteine thiols of reduced disulfide bonds, positions not given
Kd [2]: ~0.2 nM
IC50, MOLM-14 cell viability, MTS assay, 24 h [3]: 50 nM
EC50, H460 cell viability, MTS assay, 24 h [4]: 60 nM

B6: SNS622-MC-MMAE (antibody, V domains shown)
VH: QVQLQQSGPGLVKPSQTLSLTCAISGDSVSSNSAAWNWIRQSPSRGLEWLGRTYYRSKWYNDYAVSVKSRITINPDTSKNQFSLQLNSVTPEDTAVYYCARTGYSSSWVVNFDYWGQGTLVTVSS
VL: QPVLTQSPSASGTPGQRVTISCSGSSSNIGSNYVYWYQQLPGTAPKLLIYKNNQRPSGVPDRFSGSKSGTAASLAISGLQSEDEADYYCAAWDDSLRGYVFGTGTKLTVLG
modifications: MC-MMAE on cysteine thiols of reduced disulfide bonds, positions not given; reaction DAR 10:1 gives final DAR 5.72 (also made at 2.5:1 and 5:1); MC-MMAE on cysteine thiols of reduced disulfide bonds, positions not given
IC50 of MTS, H460 cells, 72 h [1]: 48 nM

B7: SNS622-DM1A1 (antibody, V domains shown)
VH: QVQLQQSGPGLVKPSQTLSLTCAISGDSVSSNSAAWNWIRQSPSRGLEWLGRTYYRSKWYNDYAVSVKSRITINPDTSKNQFSLQLNSVTPEDTAVYYCARTGYSSSWVVNFDYWGQGTLVTVSS
VL: QPVLTQSPSASGTPGQRVTISCSGSSSNIGSNYVYWYQQLPGTAPKLLIYKNNQRPSGVPDRFSGSKSGTAASLAISGLQSEDEADYYCAAWDDSLRGYVFGTGTKLTVLG
modifications: MC-DM1 on cysteine thiols of reduced disulfide bonds, positions not given; reaction DAR 2.5:1, pH 7, final DAR 2.00; MC-DM1 on cysteine thiols of reduced disulfide bonds, positions not given
% Binding (HAAH catalytic domain): 75.1%
